Test results as given in article doi:10.1101/2022.06.27.497840 (bioRxiv, 2022).

T1: MBP-Mlh2 (Saccharomyces cerevisiae (SK1), UniProt Q07980 1-695)
T1 sequence: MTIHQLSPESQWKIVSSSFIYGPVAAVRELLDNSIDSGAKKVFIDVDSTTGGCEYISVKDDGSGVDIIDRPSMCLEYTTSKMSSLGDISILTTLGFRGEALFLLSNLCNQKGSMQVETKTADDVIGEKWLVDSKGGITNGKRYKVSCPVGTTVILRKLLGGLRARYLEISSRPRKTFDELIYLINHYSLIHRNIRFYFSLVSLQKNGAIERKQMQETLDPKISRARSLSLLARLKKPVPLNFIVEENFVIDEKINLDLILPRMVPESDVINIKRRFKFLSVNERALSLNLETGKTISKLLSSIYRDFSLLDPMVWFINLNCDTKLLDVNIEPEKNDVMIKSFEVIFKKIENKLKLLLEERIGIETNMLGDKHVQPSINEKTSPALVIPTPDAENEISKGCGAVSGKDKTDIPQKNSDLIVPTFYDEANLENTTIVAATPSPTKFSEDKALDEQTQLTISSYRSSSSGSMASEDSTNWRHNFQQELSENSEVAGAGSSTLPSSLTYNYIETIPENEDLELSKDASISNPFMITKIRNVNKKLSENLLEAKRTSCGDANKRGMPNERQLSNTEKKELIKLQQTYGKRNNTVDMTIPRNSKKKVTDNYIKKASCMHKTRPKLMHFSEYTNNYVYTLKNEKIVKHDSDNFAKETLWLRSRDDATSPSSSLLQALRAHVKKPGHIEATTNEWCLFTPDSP

T2: MBP-Mlh1/MBP-Mlh2 complex (Saccharomyces cerevisiae (SK1), UniProt P38920;Q07980)
T2 sequence 1: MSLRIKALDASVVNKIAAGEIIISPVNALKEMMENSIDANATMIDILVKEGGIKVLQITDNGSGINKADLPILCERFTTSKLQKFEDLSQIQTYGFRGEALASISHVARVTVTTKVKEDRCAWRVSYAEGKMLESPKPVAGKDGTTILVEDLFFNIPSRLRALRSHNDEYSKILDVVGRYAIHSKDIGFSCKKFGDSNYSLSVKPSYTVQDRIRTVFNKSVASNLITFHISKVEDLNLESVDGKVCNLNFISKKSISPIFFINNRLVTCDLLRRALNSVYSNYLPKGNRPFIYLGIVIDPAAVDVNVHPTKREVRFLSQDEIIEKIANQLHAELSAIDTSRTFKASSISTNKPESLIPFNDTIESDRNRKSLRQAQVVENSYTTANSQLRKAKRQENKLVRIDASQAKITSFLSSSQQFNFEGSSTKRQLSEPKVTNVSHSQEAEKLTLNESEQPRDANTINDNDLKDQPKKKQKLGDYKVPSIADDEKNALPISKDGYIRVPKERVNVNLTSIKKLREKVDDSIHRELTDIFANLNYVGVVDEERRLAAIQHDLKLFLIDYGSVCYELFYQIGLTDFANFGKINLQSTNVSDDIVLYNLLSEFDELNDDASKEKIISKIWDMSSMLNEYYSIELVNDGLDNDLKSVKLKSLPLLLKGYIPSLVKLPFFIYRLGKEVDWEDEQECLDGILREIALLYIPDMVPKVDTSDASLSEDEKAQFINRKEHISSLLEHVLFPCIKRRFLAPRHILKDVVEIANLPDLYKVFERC
T2 sequence 2: T1 sequence

T3: MBP-Mlh1 (Saccharomyces cerevisiae (SK1), UniProt P38920 1-769)
T3 sequence: T2 sequence 1

B1: Rmi1 (subunit of the Top3/Rmi1 complex as used in XL-MS) (natural protein)
chain: MSFSSILSQDITDDITPPAYSATLGSREQIVFRAYQNEPWLAGTASNLILDKKLVIVDRELLFQVLMVENITKSKLTQIDDIKTKLDPKKQKVDRLRSGAQGNGAKKYEVITQVDMEDDGNVADNNCAKENNSNNNSSAAKNKAVFKLTLQSKSGDVFFAINSTPISWSSCMLGSKIVILPGTVFNRGVFILKDSQVIFLGGINRVWNENRDQKFCDYLESKLQRDKQLVNGGSKKRKAND
B2: Top3/Rmi1 complex (as used in MST, XL-MS and D-loop assays) (complex)
chain 1: MKVLCVAEKNSIAKAVSQILGGGRSTSRDSGYMYVKNYDFMFSGFPFARNGANCEVTMTSVAGHLTGIDFSHDSHGWGKCAIQELFDAPLNEIMNNNQKKIASNIKREARNADYLMIWTDCDREGEYIGWEIWQEAKRGNRLIQNDQVYRAVFSHLERQHILNAARNPSRLDMKSVHAVGTRIEIDLRAGVTFTRLLTETLRNKLRNQATMTKDGAKHRGGNKNDSQVVSYGTCQFPTLGFVVDRFERIRNFVPEEFWYIQLVVENKDNGGTTTFQWDRGHLFDRLSVLTFYETCIETAGNVAQVVDLKSKPTTKYRPLPLTTVELQKNCARYLRLNAKQSLDAAEKLYQKGFISYPRTETDTFPHAMDLKSLVEKQAQLDQLAAGGRTAWASYAASLLQPENTSNNNKFKFPRSGSHDDKAHPPIHPIVSLGPEANVSPVERRVYEYVARHFLACCSEDAKGQSMTLVLDWAVERFSASGLVVLERNFLDVYPWARWETTKQLPRLEMNALVDIAKAEMKAGTTAPPKPMTESELILLMDTNGIGTDATIAEHIDKIQVRNYVRSEKVGKETYLQPTTLGVSLVHGFEAIGLEDSFAKPFQRREMEQDLKKICEGHASKTDVVKDIVEKYRKYWHKTNACKNTLLQVYDRVKASM
chain 2: B1 chain
B3: Top3/GST-Rmi1 complex (complex)
chain 1: B2 chain 1
chain 2: B1 chain
B4: Top3 (untagged, subunit of the Top3/Rmi1 complex) (enzyme)
chain: B2 chain 1
B5: Sgs1(1-605) fragment, untagged (domain or fragment)
chain: MVTKPSHNLRREHKWLKETATLQEDKDFVFQAIQKHIANKRPKTNSPPTTPSKDECGPGTTNFITSIPASGPTNTATKQHEVMQTLSNDTEWLSYTATSNQYADVPMVDIPASTSVVSNPRTPNGSKTHNFNTFRPHMASSLVENDSSRNLGSRNNNKSVIDNSSIGKQLENDIKLEVIRLQGSLIMALKEQSKLLLQKCSIIESTSLSEDAKRLQLSRDIRPQLSNMSIRIDSLEKEIIKAKKDGMSKDQSKGRSQVSSQDDNIISSILPSPLEYNTSSRNSNLTSTTATTVTKALAITGAKQNITNNTGKNSNNDSNNDDLIQVLDDEDDIDCDPPVILKEGAPHSPAFPHLHMTSEEQDELTRRRNMRSREPVNYRIPDRDDPFDYVMGKSLRDDYPDVEREEDELTMEAEDDAHSSYMTTRDEEKEENELLNQSDFDFVVNDDLDPTQDTDYHDNMDVSANIQESSQEGDTRSTITLSQNKNVQVILSSPTAQSVPSNGQNQIGVEHIDLLEDDLEKDAILDDSMSFSFGRQHMPMSHSDLELIDSEKENEDFEEDNNNNGIEYLSDSDLERFDEERENRTQVADIQELDNDLKIITERKL
B6: His-tagged Sgs1(1-107) fragment (domain or fragment)
chain: MVTKPSHNLRREHKWLKETATLQEDKDFVFQAIQKHIANKRPKTNSPPTTPSKDECGPGTTNFITSIPASGPTNTATKQHEVMQTLSNDTEWLSYTATSNQYADVPM

Assays:
[1] = target: Mer3-Strep (full-length S. cerevisiae Mer3 with C-terminal 2xStrep-II tag) (Saccharomyces cerevisiae (SK1)) (UniProt P51979); test: SEC-MALS
[2] = target: B4; test: cross-linking
MBP-Mlh2 = target: T1, MBP-Mlh2; test: cross-linking
[3] = target: T2, MBP-Mlh1/MBP-Mlh2 complex; test: cross-linking
[4] = target: T2, MBP-Mlh1/MBP-Mlh2 complex; test: pull-down
MBP-Mlh1 = target: T3, MBP-Mlh1; test: cross-linking
Top3/GST-Rmi1 complex = target: B3; test: pull-down

Mer3-Strep (full-length S. cerevisiae Mer3 with C-terminal 2xStrep-II tag) (from UniProt P51979 1-1187) (enzyme)
stoichiometry N [1]: 2

B1
binding result [2]: binds
binding result (MBP-Mlh2): binds

B2
binding result [3]: binds

B3
binding result [4]: binds

B4
binding result (MBP-Mlh1): binds

B5
binding result (Top3/GST-Rmi1 complex): binds

B6
binding result (Top3/GST-Rmi1 complex): binds
